Results from the domain aggregation screens of Martell et al. (2025).

Assay: soluble fraction after stress (log2 fold change); higher = more stays soluble; pooled small domains, quantitative proteomics
Conditions: stress: 50 degC
Procedure, shortened: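 Pooled custom libraries of small protein domains were each held under stress at 50°C. The read-out, high-throughput quantitative proteomics, tracked how much of each protein stayed soluble. This is reported as a base-two log fold change used to indicate aggregation propensity. Higher values mean more protein remains in solution.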

Sequence | soluble fraction (log2)
HMSSYAEVMERSKYLQLHKYKIWKSETDGFWRTYYLNEQGKRKMKKLKHSEDMIDFVIEYVQNNE | -2.2
HMNLRLKEVLDEKNMSLVTLSEKTGIEKGNLSAISNNKKNPTVETLSKIAKALQISLAELFESPP | 0.303
HMHVVVIDKQGALSYQGKAITLLDLKNIVIDVPKETPFLIKADKDIHLQSFVEVLDLIKTAGFKKVSLQ | -0.182
HMNVDSIPGKSGIVTQGIDNLKAMGRVTVNGMEWTARSKDGSLIEEGKVVRVYGVEGVKLIVEED | -0.0306
HMPASVSAIRKYLGGGSFKGVGPALAKRIVDAFGEYTIETIENDPKQLAKVKGVSEKMALEINTQ | -0.0317
HMLEDYFKEEEYTEVLKIPKEYIKGFQYYLIEDAEFVNALRAKNKTMTLFLAKKLASDYIEIIRREQ | -0.208
HMDENVVLRKVAREAFVIEYVRGIRAIDPGIGGPKLWLMYKREFGDNDTVGRDTFEDILDRNNLKVRI | -3.26
HMLIADSDALRSQIESILNGNPNEVASFRAGKESLMGWFVGQVMRSTGGKADPKRTRELLQELLTK | -0.102
HMTSGTLTLTQDTPVYTEPNKDGGVAYVQPQGDIQWDKYIFANGDNWYSFVQKNRDQEVRFYIAYSDVG | -0.0923
HMGRAAEETETFRTQGELDARIKELQGQMRDAAANLEFERAAGLRDTLKRLRTRGLGLSASP | 0.0346
HMDAVLMEYDRLLALELTEDPDVYQDLLDKVREQSLGADGRVTDKYREKFDAVATRFDDYEDNYQW | -0.52
HMEPALYRLFMAHPELNASAVARRLGIAQSLLAQYISGSKKPSPERERMILTEIHKIGEELATAS | -0.65
HMKISDTITEKILTDNNFSMELAKKIGIQQGSLLSSIRRNRDSRILRLWEAVMFYKEQGYTEEEIFTDY | -1.27
HMDETPESIFAKANELYPKYIKYFYTEQEYYSKVEEYINLYEFQKNSTYILGKDLEEFLEEYITNKQ | -0.517
HMKVSAEEQNILDALQAAGGYLPFHDKSNPEEIYEAFGISKKTFKMIIGSLYKQQKINLTQTGIQLII | -0.0574
HMLPPLGDQELELLRFITESAPITVREAAESYGKDRGLARTTVLTMMERLRAKGYLTRSESGAANEYSP | -0.155
HMNSDQMKEHLDNLVDMAKKNDNTLIDTEIVNYFVGKPDIELNTDMMTKIFDYLDEHHVAVLS | -0.107
HMAIPEVDPAKQGVSATQLAALDALAHRNAGEGRVAGMVNVVIRNGEIVYYKATGPRHIDGGAPLKSTDLF | -0.153
HMVKTIINGEEKDFDAQDFQTFGDFLKKVIPEGQILKSLKINSKDVPIAFIDELKSATVDENITIEMELA | 0.429
HMIENPGQTFERIAGKITRTLRTGPLRIQQLDLLFSESGEQVMDVLRAMAENGEILIKDDTIQWNGHN | -0.0388
HMGQQTVEPLSRRELEVLSLLAKGLSNQQIADRLVISVRTVKKHVENIHGKLGVQSRTQAVARARELGLV | 0.122
HMNPFPDNTAEVLSQFKNIIVPELNTGQLSKLLRARYLVDTVGINKVEGLPFTAQELEEKIESLINSF | -0.323
HMWNTADDIKEAIWKLIQSEDPKKPYSDLKISQLLLEKEMKISRRTVAKYRKEMGILGTYSRK | -0.347
HMADPVTPQDLIRWSEALAGIARTGLGFTQSLYEQERFEEVLAVAADMRVAAGSSYNPDDLVHEWMKSVG | -0.292
HMHHGALKQALLDETARILAEEGESALSLRRLASNLGVSRTAPYNHFDNKDALLSAVAEEGFRR | -0.032
HMLDIVVGSTGYALGEITDHSGTVRVNGDTWTARLVDAAGPVEDGDRVEVYAVEGTTLLVYPS | -0.396

Sequence | soluble fraction (log2)
HMEGLESVVPDLRGKSLKSAAIAAGLSGFALSPEGSGIVYKQSPAPGGRYLKGTLIAVWLRT | -0.513
HMSAEKDGEWLTLTEAAKHLQVSPHVIRRLIQTGALPAEQVMRGAPHQIRAADLDTDRVKTMIAR | 0.193
HMDTIYMVVAKNIKYYRLIKSMSKKDLAEAVNVTPMAISNYENGKRKPEIDILKKIANVLGVRVVDFLTVR | -1.73
HMNQYALTDREKNVLGLLVDGLSYKMIADKENISFHTVNAHVRKIYEKLHVHSLAEAVSKALKENL | -1.29
HMSGEIPFPPAFKPSADHIAIASEKGINIETELLNFRDYHQARGTKLIDWNSAFRVWLRNAR | -0.144
HMITEDQVIARIGLLSPAEKSLLKDKLERFRRLTLSEQQHLREFHSALDNHDKRTDLLNVLRKYNDWVNQL | -1.67
HMSIMNEQIREILNQQVTKTSKIQQLLLLGLTRRQVADLVTNGNYGFVQNVYRNMLDAGIFTP | -0.5
HMVLGDQTFQSASAPKVFFGGDAAYGPKNIITAVAHGHDAAVSIDRFLHGEDVSKRPGPQVNLVS | 0.144
HMHDPRLPLPGTLLAREFQGRDIVVKVLDNGFEFDGRRYKSLSAIAQEVTGSKWNGFLFFGI | -0.857
HMRSGFAFSEEEIKHLDNIVSPLLIKGQSIHHISIFHKDEVMMSERTLYSYVNNGLFSARNIDMPRTVRMR | 0.14
HMKIDNPEYQKIMDMIPYFFQTRNYDEAIEALSYVIEQEPSFSEAYNKRATFYFMMGDFENSMKDIESTLA | -0.155
HMKPEDIALLEEIRDLLKEKKSVIVNLEYVNKDVARRIVDFISGGVFALNGHIQKVSNSIFLVAPMN | 0.00619
HMPNYVEMLRLHEAGFSLRQIAKLVSSGRNTVTRTVNIAQEKELSYEEIAQWSSEELENMFKPD | -1.68
HMRFTVSDKMDMLLKSLSAGQSMPFKSLFASASTKSEVIVTFLALLELMKLNQFVVWQDQILGEIEIERR | -0.554
HMGKIFSELTPREIEVVRLIADGLSNQQIAEELFLSNGTVRNHISTILEKTGLEHRTQIAVMWLR | -0.146
HMRSKTDLVYEEIKKLILRGELSSDTPISENHLARRFEISRTPIREALKRLHIEGFVRIIPNHGVFVR | -0.343
HMIAVLEEGSHFRAVNDVTGKPFGPEMVIKNGQVTAVGKTISTKPKNLLGKKEGTKFVISGKQYVIKDI | -0.00494
HMNPTTDFFKLEGIDATRILVFDQVGRQVAQFSQPAQQMDIQALPAGVYALRIENADGQVYSARIVK | -0.16
HMIRTGEVVTGKVINVKEDQIILNIGFKSDGIITRNEYTNDNSLDLRTVVHEGDEIEAKVLKVNDGEGQVV | ≥ 0.62
HMNIYIEFGRRLAFIRQNSKLSQSQIAQKLNIAQSTYAGYEKGVRKIPLEIIVQLSKILNISPTILILG | -3.91
HMLQYSQEIEEAQKILQNLGLYKGEIDGINGVNTKSAIKEFQRKSGLIIDGILGPNTTSALSKGAESYITV | 0.112
HMSPRQVTAVRSGSPMPVLPGEDWRLYDASGALVARGSGAAPIPKSTGLLRLNSEGLDGLADRWIWVL | -0.255
HMNFTKHPENPNFVVYRFTDPERANSFRAELIANNISFEEDTEKKKQLIYTLFAIHTKYYNQSMQINIK | -0.463
HMTDIVPNLIGKSLKDAIQSVEKSNLKAIFDGHGIVVSQQPRPGSPIPARKIMKVTLSPDYR | 0.011
HMGIKAADIVTNDIQFNTQAQFDKYKDLYPTLGWGNYDPNKTYTMQGFKNKLKPNELFTGTPNLKIEDT | 0.141
HMAGSGLPVPRFVSLADDRVNARAGPGFRFPINWVYLRKGFPVEVVDEFGPWRRIRDIDGVAAWIHLSMLS | -0.85

Sequence | soluble fraction (log2)
HMDSERTALLSSDRTSFTAREAALLIGVSQRDIYRMIEDELLDSFTVGKMIRIRRSALEWWLS | -2.92
HMATGGKIYIGMNDNGKVVGVSDADKLLEDIPNKVRDVLGIIVDVNLLEENGLKYIEIDVPPYSN | -0.585
HMPYPSPADLARMDELIAWVKDEGRLPRDRSGQRSERSMARWLAARRREAAEGTLDPAYRDGLAQVPGWR | -0.368
HMSKSENLYSAARELIPGGVNSPVRAFTGVGGTPLFIEKADGAYLYDVDGKAYIDYVGSWGPMVLGHNHP | 0.0101
HMAATVKVPDLTKMTPDEAQRALGQVGLKGKQGDDVDDDSVPVGYIAKQDEAPNSDAKAGDTITYHL | 0.16
HMSSVVVARTWTDTTGDFKVEAELLGVEGGLVRLKKEDGTVLSVPIAKLSTADRTFLQENQP | 0.144
HMIDSEEVMETIQDLGYSPVFDVKEKFYKIKEEQIGKITLEVHIILRYGMVDLVWIVRENGELLLG | 0.138
HMKQFVVQYYGIDGEVINSVYKNGMSDLTSYEPEKIDGKNFKGWSLSEDSKKVIDENYRINSDVNLYAVYT | 0.0253
HMVEPIKAPMPGMVLKILVEPGQQIEKGQGVLILEAMKMENVLKSSAAATVKSIKVSEKSAVEKGAILVEL | -0.109
HMLQEHVLEIRHPSWNDAFRIIGHDGWRTQTGAHAAILSYDEEELNIKWDSWGYERFIRDEKGIFRLAA | -0.055
HMSDEEAISKLPGVGPAILEKLKEAGYNDIMTIAVDSPKNLAELAEIGEPTAAKIIAAAKKAAD | 0.0933
HMSVLVLPMLKELTHEDREVVELFYLNDMSVREIALIISVPIGTVKSRLHRARAQLKHQIVNLNQ | -3.03
HMRRRVIGTLVMGDMSTDFKVLADGHTHRVLAAAISFHKAKPGDEVVILVPKSAPSKWAAVEHVMK | 0.458
HMSSVTGMERFLSSGAVKGIGKTMAARIVEHFGTETMTVLESFPERLAEVPGIGAKKAEAIGQSYSEISD | 0.174
HMQPVEHLPTTDPLTTSAASEHERYEKVRWWLEEMQRTYETGDEVRAERIRLSLIEQMYKWEGE | -0.185
HMVNLKQVELREHHPWVGHKIKELDISRHTLIVMIRRGDNAIVPNGDTLIKSGDIVFVFSKR | -1.05
HMTTQVPYTAKLININGGSVVNFRKEPGMNTTIIRTYPVGTEVTVLETGVNWSKVEIDGVTGYVSSYFL | -0.699
HMQENDLGAVEKIVDDVLHDPKNAQAVADFKAGSEKVLGFLTGQVMKASRGKANPSVVQEVLRQKLKN | -0.00966
HMDDHLSFLAARLPDGASFDTDFDALGIDSFGMIALRAEVEERLGEQIADSDWTKVERPSEILAMLERK | -0.272
HMAKQEPTDNGYDIYKVTASVLNVRNGAGTSYAVAYQLSKEDYVEVVSIDKGWAKLKDGKYVSADWITLYK | -0.54
HMLHIKKGDTVIVNAGESKGQQGKVLEVLVGKERAIVEGVNMVSKHTKPNAKNPQGGIVKKEAPIHISNLQ | 0.179
HMRYPLPYAFARSQQLLLEETDDGRYTLWMSSHPARSAVGEVSRKYGVQTFEVLADGPLAQRISAAYAQ | -1.37
HMSSWEDNFSYWIRNVAETLDKDLLNVANSKLEKIIINAALDQTNGKKNEAAILLGLGRNTLAKKIKELG | -0.858
HMREGNELLGKEGVTVSELRPAGIALIDGRRTDVVTDGEFVAVDQAVEVVEVSGNRVVVRRS | 0.0948
